Experimental data as given in publication PMC11876737, “Side-by-Side Comparison of the In Vivo Performance of [^212Pb]Pb-DOTAMTATE and Other SSTR2-Targeting Compounds” (Journal of Nuclear Medicine, 2025).
Like-named read-outs stand apart in the source and are kept apart here. Positions of bridges follow the written chain, without caps; N, C: chain ends. Non-standard residues stand in square brackets, D forms with d. Residues, ends and D or L forms follow the SMILES beside them. *: point of attachment. DO3AM = NC(=O)CN1CCN(CC(N)=O)CCN(CC(=O)*)CCN(CC(N)=O)CC1; dPhe(4-NHCONH2) = NC(=O)Nc1ccc(C[C@@H](N)C(=O)O)cc1; Dihydroorotyl(S) = O=C1C[C@@H](C(=O)*)NC(=O)N1; Phe(4-Cl) = N[C@@H](Cc1ccc(Cl)cc1)C(=O)O; Phe(4-NH2) = Nc1ccc(C[C@H](N)C(=O)O)cc1

Tests used:
[1] = tested on: SSTR2-overexpressing tumors, AR42J; test: Biodistribution of ^212Pb SSTR2 analogs in AR42J tumor-bearing mice; format: in vivo, athymic nude female mice
Procedure: (§1) The background was automatically subtracted from the counts. A standard was also used for decay correction to time of injection or time of collection. The percent injected dose per gram (%ID/g) was calculated for each organ collected.  FIGURE 2. In vivo distribution of ^212Pb-radiolabeled SSTR2 analogs in athymic nude female mice carrying subcutaneous AR42J tumors. […] Tissue uptake is expressed as %ID/g ± SD decay corrected to time of injection (n = 4-5). In our study, we propose to use the integral of the time-activity curve, also known as the AUC, as a surrogate measure for estimating the absorbed dose. We calculated all SSTR2 analogs' AUC for kidneys and tumors including tumor-to-kidney ratios (T/K AUC ratio) (Figs. 3 and 4). We observed distinct AUC patterns and consequently distinct T/K AUC ratios across the different compounds.

[2] = as above; format: in vivo, athymic nude female mice; conditions: female, athymic nude, mouse, in vivo, iv, total radioactivity
Procedure: as §1

[3] = ^212Pb chelate RCY after 24 h at room temperature (instant thin-layer chromatography); format: physicochemical; conditions: 24 h at RT; 444 MBq/50 μg (27.5 nmol); triplicate ± SD
Procedure: The radioisotope-free compounds were diluted in metal-free water at needed concentrations and were stored at -20°C. ^212Pb was produced using ^224Ra generators (Orano Med LLC). Chelation was performed by incubating 27.5 nmol of peptide per 444 MBq of ^212Pb for 10 min at room temperature in 0.4 M ammonium acetate buffer, with a pH of 6.1. Radiochemical purity, assayed by instant thin-layer chromatography was used to confirm that ^212Pb chelation was greater than 95%. Radiolabeled peptides were spotted onto an instant thin-layer chromatography strip and allowed to migrate in a 22% citrate buffer. The instant thin-layer chromatography strip was then cut in half and counted using a calibrated Perkin Elmer Wizard2 2470 automatic γ-counter with an energy window of 185-250 keV considering ^212Pb major emitted γ-rays (238 keV). Samples were diluted to appropriate activity before injection in a buffer containing ascorbic acid, ethanol, and polysorbate-20. […], and PSC-PEG2-TATE (Fig. 1) were radiolabeled at a specific activity of 444 MBq per 50 μg (or 27.5 nmol) in a chelation buffer containing 5% ethanol, 20 mM ascorbic acid, and 0.02% polysorbate 80. The chelation of ^212Pb appears to occur more slowly with the PSC than with the DOTA and DOTAM chelators. […] The RCY remained above 95% at 24 h for all compounds.

somatostatin receptor 5 = tested on: somatostatin receptor 5; parameters: method as in PMID 10774879; conditions: cited from earlier work
SSTR2 = conditions: cited from earlier work
somatostatin receptor 3 = tested on: somatostatin receptor 3; parameters: method as in PMID 10774879; conditions: cited from earlier work
[4] = time-activity curve of %ID/g at 1, 4, 24 h, decay corrected to time of collection

In the case of `C[C@@H](O)[C@@H]1NC(=O)[C@H](CCCCN)NC(=O)[C@@H](Cc2ccc(NC(N)=O)cc2)NC(=O)[C@H](Cc2ccc(NC(=O)[C@@H]3CC(=O)NC(=O)N3)cc2)NC(=O)[C@H](NC(=O)[C@H](Cc2ccc(Cl)cc2)NC(=O)CN2CCN(CC(N)=O)CCN(CC(N)=O)CCN(CC(N)=O)CC2)CSSC[C@@H](C(=O)N[C@H](Cc2ccc(O)cc2)C(N)=O)NC1=O` [[^212Pb]Pb-DOTAM-JR11, DOTAM-p-Cl-Phe-cyclo(D-Cys-Aph(Hor)-D-Aph(Cbm)-Lys-Thr-Cys)D-Tyr-ONH2, metal not drawn] (DO3AM-[Phe(4-Cl)][dC][Phe(4-NH2)](Dihydroorotyl(S))[dPhe(4-NHCONH2)]KTC[dY]-NH2; disulfide 2-7), the “AR42J tumor AUC” value ([1]; mouse, in vivo) is reported as 363 ± 75, the “Kidney AUC” value ([1]; mouse, in vivo) is reported as 274 ± 19 and the tumor retention ([1]; mouse, in vivo) is reported as “favorable tumor retention”. For the same compound, the “uptake in healthy tissues such as the stomach, the lungs, and spleen” value ([1]; mouse, in vivo) was “higher compared with uptake of the other SSTR2 analogs”.

In the case of `C[C@@H](O)[C@H](NC(=O)[C@@H]1CSSC[C@H](NC(=O)[C@@H](Cc2ccccc2)NC(=O)CN2CCN(CC(N)=O)CCN(CC(N)=O)CCN(CC(N)=O)CC2)C(=O)N[C@@H](Cc2ccc(O)cc2)C(=O)N[C@H](Cc2c[nH]c3ccccc23)C(=O)N[C@@H](CCCCN)C(=O)N[C@@H]([C@@H](C)O)C(=O)N1)C(=O)O` [[^212Pb]Pb-DOTAMTATE, metal not drawn], the tissue uptake at 4 h [2] is reported as roughly 50 %ID/g, the “AR42J tumor AUC” value ([1]; mouse, in vivo) is reported as 583 ± 58 and the “Kidney AUC” value ([1]; mouse, in vivo) is reported as 186 ± 28. For the same compound, the “uptake in healthy tissues such as the stomach, the lungs, and spleen” value ([1]; mouse, in vivo) was “higher compared with uptake of the other SSTR2 analogs”.

In the case of `C[C@@H](O)[C@H](NC(=O)[C@@H]1CSSC[C@H](NC(=O)[C@@H](Cc2ccccc2)NC(=O)CN2CCN(CC(=O)O)CCN(CC(=O)O)CCN(CC(=O)O)CC2)C(=O)N[C@@H](Cc2ccc(O)cc2)C(=O)N[C@H](Cc2c[nH]c3ccccc23)C(=O)N[C@@H](CCCCN)C(=O)N[C@@H]([C@@H](C)O)C(=O)N1)C(=O)O` [[^212Pb]Pb-DOTATATE, metal not drawn, reference compound], the tissue uptake at 4 h ([2]; 444 kBq, 4 h after injection, i.v., AR42J tumor, read-out: average tumor uptake) is reported as roughly 10 %ID/g, the “Tumor AUC / Kidney AUC ratio (T/K AUC ratio)” value ([1]; decay corrected to time of collection) is reported as 0.73 and the “AR42J tumor AUC” value [1, 4] is reported as 122 ± 12. The “Kidney AUC” value [1, 4] was 161 ± 21, the “biodistribution profile / accumulation in healthy tissues” value ([1]; tumor-bearing female mice) was “distinctly cleaner” and the RCY [3] was 98.3% ± 1.2%.

With `C[C@@H](O)[C@H](NC(=O)[C@@H]1CSSC[C@H](NC(=O)[C@@H](Cc2ccccc2)NC(=O)CCOCCOCCNC(=O)CN2CCN(CC(=O)O)CCN(CC(N)=O)CCN(CC(=O)O)CC2)C(=O)N[C@@H](Cc2ccc(O)cc2)C(=O)N[C@H](Cc2c[nH]c3ccccc23)C(=O)N[C@@H](CCCCN)C(=O)N[C@@H]([C@@H](C)O)C(=O)N1)C(=O)O` [[^212Pb]Pb-PSC-PEG2-TATE, PSC-amino-PEG2-acid-D-Phe-cyclo(Cys-Tyr-D-Trp-Lys-Thr-Cys)Thr-COOH, metal not drawn] the “AR42J tumor AUC” value ([1]; mouse, in vivo) was 274 ± 59 and the “Kidney AUC” value ([1]; mouse, in vivo) was 290 ± 27.

For `C[C@@H](O)[C@H](NC(=O)[C@@H]1CSSC[C@H](NC(=O)[C@@H](Cc2ccccc2)NC(=O)CN2CCN(CC(=O)O)CCN(CC(N)=O)CCN(CC(=O)O)CC2)C(=O)N[C@@H](Cc2ccc(O)cc2)C(=O)N[C@H](Cc2c[nH]c3ccccc23)C(=O)N[C@@H](CCCCN)C(=O)N[C@@H]([C@@H](C)O)C(=O)N1)C(=O)O` [[^212Pb]Pb-PSC-TATE, PSC-D-Phe-cyclo(Cys-Tyr-D-Trp-Lys-Thr-Cys)Thr-COOH, metal not drawn], the “AR42J tumor AUC” value ([1]; mouse, in vivo) was 177 ± 22 and the “Kidney AUC” value ([1]; mouse, in vivo) was 156 ± 24.

In the case of `C[C@@H](O)[C@@H]1NC(=O)[C@H](CCCCN)NC(=O)[C@@H](Cc2c[nH]c3ccccc23)NC(=O)[C@H](Cc2ccc(O)cc2)NC(=O)[C@@H](NC(=O)[C@@H](Cc2ccccc2)NC(=O)CCOCCOCCNC(=O)CN2CCN(CC(=O)O)CCN(CC(N)=O)CCN(CC(=O)O)CC2)CSSC[C@@H](C(=O)N[C@H](CO)[C@@H](C)O)NC1=O` [^212Pb-PSC-PEG2-TOC, PSC-amino-PEG2-acid-D-Phe-cyclo(Cys-Tyr-D-Trp-Lys-Thr-Cys)Thr-OH, metal not drawn, reference compound], the “AR42J tumor AUC” value ([1]; mouse, in vivo) is reported as 290 ± 45 and the “Kidney AUC” value ([1]; mouse, in vivo) is reported as 320 ± 51.

In the case of `C[C@@H](O)[C@@H]1NC(=O)[C@H](CCCCN)NC(=O)[C@@H](Cc2c[nH]c3ccccc23)NC(=O)[C@H](Cc2ccc(O)cc2)NC(=O)[C@@H](NC(=O)[C@@H](Cc2ccccc2)NC(=O)CN2CCN(CC(=O)O)CCN(CC(N)=O)CCN(CC(=O)O)CC2)CSSC[C@@H](C(=O)N[C@H](CO)[C@@H](C)O)NC1=O` [^212Pb-PSC-TOC, PSC-D-Phe-cyclo(Cys-Tyr-D-Trp-Lys-Thr-Cys)Thr-OH, metal not drawn], the “AR42J tumor AUC” value ([1]; mouse, in vivo) is reported as 353 ± 52 and the “Kidney AUC” value ([1]; mouse, in vivo) is reported as 377 ± 34.

In the case of octreotate, the “affinity for somatostatin receptor 5” value (somatostatin receptor 5) is listed as “moderate affinity”, the “binding to SSTR2 relative to TOC” value (SSTR2) is listed as “approximately 10 fold” and the “affinity for somatostatin receptor 3” value (somatostatin receptor 3) is listed as “minimal binding”.

For octreotide [TOC], the “affinity for somatostatin receptor 5” value (somatostatin receptor 5) is listed as “high affinity”, the “affinity for SSTR2” value (SSTR2) is listed as “high affinity” and the “affinity for somatostatin receptor 3” value (somatostatin receptor 3) is listed as “high affinity”.
